Results from patent US20240207432A1 (BIOSION, published 2024).
Where two headings read alike, the source gives them in different places.

T1: human TROP2-his protein (human, UniProt P09758 27-274)
T1 construct: Biotin-labelled in the ELISAs, unlabelled analyte in Biacore; also called biotin-labeled human TROP2-his protein; biotin human Trop2-his
T1 sequence: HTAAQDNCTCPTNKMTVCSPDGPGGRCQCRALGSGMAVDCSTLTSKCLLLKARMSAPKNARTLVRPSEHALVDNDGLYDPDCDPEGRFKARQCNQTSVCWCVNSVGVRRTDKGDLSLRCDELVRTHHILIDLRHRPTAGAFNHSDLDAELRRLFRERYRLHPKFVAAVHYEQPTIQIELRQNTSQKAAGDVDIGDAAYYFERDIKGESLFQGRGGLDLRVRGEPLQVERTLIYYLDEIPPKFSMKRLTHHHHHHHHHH

B1: mouse antibody A1E4F7D4 (antibody, V domains shown)
VH: QVQLQQSGAELAKPGTSVKMSCEASGYSFTTHWIHWMKQRPGQGLEWIGTIFPSNAYAVYNQKFRDRAIMTADRSSTTAYIQLTGLTSEDSAVYYCARASYFDYWGQGTTLTVSS
VL: DILLTQSPATLSVSPGERVTFSCRASQNIGTSIHWFQQRTTGSPRLLIKYASESISGIPSRFSGSGSGTDFTLHINSVESEDIAHYYCQHSHSWPFTFGSGTKLEIQ
notes: Mouse monoclonal IgG purified from hybridoma supernatant; also called Mouse A1E4F7D4
B2: huA1E4F7D4-V16 (antibody, human IgG1, kappa, V domains shown)
VH: QVQLVQSGAEVKKPGASVKVSCKASGYSFTTHWIHWVRQAPGQGLEWIGTIFPSNAYAVYNQKFRDRATMTADTSISTAYIELSRLRSDDTAVYYCARASYFDYWGQGTTVTVSS
VL: EIVLTQSPATLSLSPGERATLSCRASQNIGTSIHWFQQKPGGAPRLLIKYASESISGIPSRFSGSGSGTDFTLTISSLEPEDFAVYYCQHSHSWPFTFGQGTKLEIKR
notes: Positions of the X residues are given in the claims; also called humanized antibody huA1E4F7D4-V16
B3: benchmark (in house prepared sacituzumab) (antibody, human IgG1, kappa, V domains shown)
VH: SVQLQQSGSELKKPGASVKVSCKASGYTFTNYGMNWVKQAPGQGLKWMGWINTYTGEPTYTDDFKGRFAFSLDTSVSTAYLQISSLKADDTAVYFCARGGFGSSYWYFDVWGQGSLVTVSS
VL: DIQLTQSPSSLSASVGDRVSITCKASQDVSIAVAWYQQKPGKAPKLLIYSASYRYTGVPDRFSGSGSGTDFTLTISSLQPEDFAVYYCQQHYITPLTFGAGTKVEIKR
notes: also called BM; BM1
B4: mouse antibody A1E11A12D1 (antibody, V domains shown)
VH: QVQLQQSGAELARPGASVKLSCMASGYTFTTYGISWVRQRTGQGLEWIGQIYPGSDYSYCDEDFKGKATLTADKSSSTAYMQLSSLTSEDSAVYFCARASYFDYWGQGTTLTVSS
VL: DILLTQSPAILSVSPGERVSFSCRASQTIGTAIHWYQQRANGSPRLLIKYASESISGIPSRFSGSGSGTDFALSINTVESEDFAYYYCQQSNNWPFTFGGGTKLEIR
notes: Mouse monoclonal IgG purified from hybridoma supernatant
B5: mouse antibody C1B3B12D2 (antibody, V domains shown)
VH: QVQLQQSGPELVRPGTSVKMSCKAAGYTFTKFWIGWVKQRPGHGLEWIGNIYPGGAYINYNENFKGKATLTADTFSSTAYMQLNSLTSADSAIYYCAREGSSGYWGQGTTLTVSS
VL: DIVMTQSPSSLTVTAGEKVTLSCKCSQSLLNSGTQENYLTWYQQKPGQPPKMLIYWASIREPGVPDRFTGSGSGTDFTLTINNVQAEDLAVYYCQHDYSYPFTFGSGTKLEIK
notes: as for B4

Tests used:
[1] = molecular target: T1, human TROP2-his protein; assay: capture ELISA, captured antibody, biotin human TROP2-his in solution, OD(450-630)
[2] = molecular target: T1, human TROP2-his protein; assay: competitive ELISA: mouse A1H3C5H8E12 coated at 2 ug/mL, antibody premixed with biotin human TROP2-his; blocked: binding of TROP2-his to coated A1H3C5H8E12
Description: (§1) The mouse anti-TROP2 antibodies were tested for epitope binding in a competitive ELISA assay. […] ELISA plates were washed once with wash buffer (PBS+0.05% v/v Tween-20, PBST) and then blocked with 200 μl blocking buffer (5% w/v non-fatty milk in PBST) for 2 hours at 37° C. While blocking, the anti-TROP2 antibodies or controls were diluted with biotin labeled human TROP2-his protein (SEQ ID NO: 67, 34 ng/mL in 2.5% wA non-fatty milk in PBST), starting at 80 nM with a 5-fold serial dilution, and incubated at room temperature for 40 minutes. After plate washing for 4 times, the antibody/TROP2-his protein mixtures were added to the antibody coated plates, 100 μl per well. After incubation at 37° C. for 40 minutes, plates were washed 4 times again using wash buffer. Then the plates were added and incubated with 100 μl Peroxidase Streptavidin (1:10000 dilution in PBST buffer. Jackson Immunoresearch, Cat #016-030-084) for 40 minutes at 37° C. Plates were washed again using wash buffer. Finally, TMB was added and the reaction was stopped using 1M H₂SO₄. The absorbance of each well was read on a microplate reader using dual wavelength mode with 450 nm for TMB and 630 nm as the reference wavelength, and the OD (450-630) values were plotted against antibody concentration. Data was analyzed using Graphpad Prism software and IC₅₀ values were reported.

[3] = molecular target: T1, human TROP2-his protein; assay: epitope grouping ELISA, 15 ug/ml antibody premixed with biotin human TROP2-his; competitor: coated huA1E4F7D4-V16
Description: (§2) Firstly, capture ELISA was performed to determine the concentration of biotin-labeled human Trop2 proteins appropriate for the epitope binning test. […] The plates were washed for 4 times, added with 100 μl/well of serially diluted biotin human Trop2-his proteins (SEQ ID NO: 67) in PBST with 2.5% non-fatty milk (starting from 1.3 μg/ml with a 5-fold serial dilution), and incubated for 40 min at 37° C. Then the plates were washed for 4 times and added with 100 μl/vell of HRP-streptavidin (Jackson Immuno Research, Cat #016-030-084). The plates were incubated for another 40 min at 37° C. Then the plates were washed again, and 100 μl/well TMB was added for color development at RT for 15 min followed by quenching with 50 μl 1M H₂SO₄. The OD values at 450 nm were read.
(§3) With the appropriate concentration determined above, epitope grouping ELISA was performed. […] ELISA plates were washed once with wash buffer (PBS+0.05% v/v Tween-20, PBST) and then blocked with 200 μl blocking buffer (5% w/w non-fatty milk in PBST) for 2 hours at 37° C. […] The mixtures were incubated at room temperature for 40 minutes. After plate washing for 4 times, the antibody/biotin-TROP2-his protein mixtures were added to the antibody coated plates, 100 μl per well, and incubated for another 40 min at 37° C. Then 100 μl/well of HRP-streptavidin was added and incubated for 40 min. Then OD₄₅₀ values were determined and the cross-competition capability was calculated (cross-competition capability of antibody X (%)=(OD₄₅₀ of Antibody X-[…] of Blank)/(OD₄₅₀ of no mAb-OD₄₃₀ of Blank)*100%).

[4] = molecular target: T1, human TROP2-his protein; assay: SPR Biacore, compared with BM2
[5] = molecular target: T1, human TROP2-his protein; assay: epitope grouping ELISA, 15 ug/ml antibody premixed with biotin human TROP2-his; competitor: coated BM1
Description: as §2, §3

[6] = molecular target: T1, human TROP2-his protein; assay: epitope grouping ELISA, 15 ug/ml antibody premixed with biotin human TROP2-his; competitor: coated BM2
Description: as §2, §3

[7] = molecular target: T1, human TROP2-his protein; assay: capture ELISA, captured antibody, biotin human TROP2-his in solution, OD(450-630); remark: listed apart in the source
Description: Plates were washed once with wash buffer (PBS+0.05% v/v Tween-20, PBST) and then blocked with 200 μl/well blocking buffer (5% w/v non-fatty milk in PBST) for 2 hours at 37° C. […] Plates containing captured anti-TROP2 antibodies were incubated with biotin-labeled human TROP2-his protein (prepared in house, SEQ ID NO: 67, 56.7 ng/mL in 2.5% w/v non-fatty milk in PBST, 100 μl/well) for 40 minutes at 37° C., washed 4 times, and incubated with streptavidin conjugated HRP (1:10000 dilution in PBST, Jackson Immuno Research, Cat #016-030-084, 100 μl/well) for 40 minutes at 37° C. After a final wash, plates were incubated with 100 μl/well ELISA substrate TMB (Innoreagents, Cat #TMB-S-002) at room temperature. The reaction was stopped in 3-10 minutes at room temperature with 50 μl/well 1M H₂SO₄, and the absorbance of each well was read on a microplate reader using dual wavelength mode with 450 nm for TMB and 630 nm as the reference wavelength. The OD (450-630) values were plotted against antibody concentration. Data was analyzed using Graphpad Prism software and EC₅₀ values were reported.

[8] = molecular target: T1, human TROP2-his protein; assay: competitive ELISA: BM1 coated at 1 ug/mL, antibody premixed with biotin human TROP2-his; blocked: binding of TROP2-his to coated BM1; partial only: OD drops from about 1.45 to a plateau of about 0.8
Description: as §1

Binder | EC50 [1] | IC50 [2] | OD450 [3] | OD450 [5] | OD450 [6] | also measured
B1 | 0.261 nM | 0.621 nM | – | – | – | –
B2 | – | – | 0.027 OD450 | 1.42 OD450 | 1.92 OD450 | fold higher affinity than BM2 [4]: > 100 fold
B3 | – | – | 1.61 OD450 | 0.048 OD450 | 0.031 OD450 | EC50 [7]: 0.141 nM
B4 | – | 0.933 nM | – | – | – | –
B5 | 0.117 nM | – | – | – | – | IC50 [8]: ~0.6 nM
